These results are taken from patent publication US20020095023A1 (published 2002).

Ends that are not written are not given here.

B1: phage ph4 displaying peptide p4 (peptide)
peptide: WEFPGWM
modifications: also: displayed on phage coat protein
notes: Whole phage particle in the assay; not shown: phage coat protein of the heptamer library (New England Biolabs); linker and coat protein not described
B2: phage ph2 displaying peptide p2 (peptide)
peptide: WYVYPSM
modifications: also: displayed on phage coat protein
notes: Whole phage particle in the assay; also called ph2 clone; not shown: phage coat protein of the heptamer library (New England Biolabs); linker and coat protein not described
B3: Recombinant rat HRF (IgE-dependent histamine-releasing factor) (ligand, UniProt P63029 1-172, looked up)
chain: MIIYRDLISHDELFSDIYKIREIADGLCLEVEGKMVSRTEGAIDDSLIGGNASAEGPEGEGTESTVVTGVDIVMNHHLQETSFTKEAYKKYIKDYMKSLKGKLEEQKPERVKPFMTGAAEQIKHILANFNNYQFFIGENMNPDGMVALLDYREDGVTPFMIFFKDGLEMEKC
notes: Expressed in E. coli from pRSET-A and purified on a Ni column; also called recombinant HRF protein; translationally controlled tumor protein; not shown: N-terminal His-tag leader of the pRSET-A vector

One assay has as its target T1, BSA (bovine, UniProt P02769).
T1 construct: control coating of the ELISA wells; also called bovine serum albumin
Briefly: phage ELISA on coated wells, anti-M13-HRP. How it is done:
That is, the phage plaques were transferred to 1 ml of ER2537 culture solution cultivated in SB medium (OD₆₀₀=0.5˜1) and then, cultured in 37° C. incubator (rpm 250) for 5 hours. Each 100 μl of the culture solution was added to 900 μl of SB medium and cultured overnight. The culture solution was centrifuged twice at 14,000 rpm for 5 minutes per centrifugation and the obtained supernatant was used for ELISA.
To plastic wells, each of which was coated with HRF or BSA (control), 50 μl of a solution obtained by diluting each isolated phage solution with the equivalent amount of 6% BSA/PBS, and the resulting mixture was allowed to stand for 2 hours. After washing five times with PBST, 100 μl of HRP-conjugated anti-M13 antibodies (Pharmacia) diluted in 3% BSA/PBS with the ratio of 1:5000 were added thereto and the whole was allowed to stand for 1 hour. After washing six times with PBST and then, once with PBS, 100 μl of peroxydase substrate solution was added thereto. The chromogenicity was measured using ELISA reader at 405 nm. From FIG. 12, it can be seen that the phages ph1, ph2 and ph4, especially ph2 and ph4, specifically bind to HRF.

The target in assay [1] is B3. Briefly: competition ELISA on HRF-coated wells, peptide added before phage ph2 (1/25 dilution), anti-M13-HRP. How it is done: (§1) Also, as a negative control, random peptide (ran, amino acid sequence: LMEGCRA) was synthesized. To the wells coated with HRF was added each 30 μl of the peptide solution serially diluted in 6% BSA/PBS from 1000 nM (1000, 100, 10, 1, 0.1, 0.01, 0.001 nM) and the solution was allowed to stand at room temperature for 30 minutes. The 1/25-fold diluted phage solution was added thereto and the whole solution was further allowed to stand for 2 hours. The solution was washed five times with PBST and then, each 100 μl of HRP-conjugated anti-M13 antibodies were added thereto and then, the resulting mixture was allowed to stand for 1 hour. The mixture was washed 6 times with PBST and once with PBS, and thereto was added each 100 μl of peroxydase substrate solution to examine the competition. It can be seen from the above figures that both of the synthetic peptides p2 and p4 bind to HRF competitively with phage clones ph2 and ph4.

Assay [2] addresses T2, (Na,K)ATPase as flowed in the Biacore analysis.
T2 construct: domain: large cytoplasmic loop; also called (Na,K)ATPase large cytoplasmic loop
The experiment in a line: Biacore (SPR); HRF immobilised on CM5 sensor chip, (Na,K)ATPase flowed. As to the method:
Recombinant rat HRF was immobilized on CM5 sensor chip at a concentration of […] in pH 4.0, 10 mM acetate and then, corrected by flowing HBS buffer (0.01 M Hepes, pH 7.4, 0.15 M NaCl, 3 mM EDTA, 0.005% surfactant P20). […] by flowing 50 mM NHS (N-hydroxysuccinimide) and 200 mM EDC(N-ethyl-N-(3-[…])carbodiimide). The binding affinity was measured by flowing (Na,K)ATPase.

For assay [3], the target named is B3. Briefly: competition ELISA on HRF-coated wells against phage ph2, anti-M13-HRP. How it is done: as §1
b) In order to test whether or not p1, p2 and p4 bind to the identical site on HRF, the wells were coated with HRF according to the substantially same procedure as in the above a). As shown FIG. 14c, p1, p2 and p4 bound to the identical site on HRF.

For assay [4], the target named is B3. Briefly: competition ELISA on HRF-coated wells, peptide added before phage ph4 (1/25 dilution), anti-M13-HRP. How it is done:
as §1

T1 sequence (P02769 25-607 limits assumed): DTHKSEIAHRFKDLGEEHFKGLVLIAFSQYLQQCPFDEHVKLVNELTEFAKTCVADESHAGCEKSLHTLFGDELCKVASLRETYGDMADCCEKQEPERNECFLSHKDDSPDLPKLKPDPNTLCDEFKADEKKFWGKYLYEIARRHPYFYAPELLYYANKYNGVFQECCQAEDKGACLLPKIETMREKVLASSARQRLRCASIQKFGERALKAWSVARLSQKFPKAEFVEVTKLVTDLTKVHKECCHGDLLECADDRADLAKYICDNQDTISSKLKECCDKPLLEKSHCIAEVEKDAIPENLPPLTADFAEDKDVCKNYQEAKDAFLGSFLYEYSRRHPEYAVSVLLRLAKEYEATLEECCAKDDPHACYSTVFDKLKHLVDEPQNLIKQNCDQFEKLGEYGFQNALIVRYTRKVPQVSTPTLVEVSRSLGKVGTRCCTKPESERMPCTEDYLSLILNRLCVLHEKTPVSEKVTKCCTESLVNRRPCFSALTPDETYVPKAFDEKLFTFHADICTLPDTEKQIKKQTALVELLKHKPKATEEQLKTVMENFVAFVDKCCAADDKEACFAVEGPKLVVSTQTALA

Consider B1, for which the binding result with BSA is reported as “no binding”. For WYVYPSM [synthetic heptapeptide p2], in assay [1], the “IC50 (read off the curve)” value is about 40 nM. As for B2, the binding result with BSA is given as “no binding”. For B3, in assay [2], the Kd was found to be 850 nM. This counts as sub-micromolar. Take LVTYPLP [synthetic heptapeptide p1]: the “IC50 (read off the curve)” value in assay [3] is about 20 nM. As for WEFPGWM [synthetic heptapeptide p4], the “IC50 (read off the curve)” value was about 20 nM in assay [3] and about 10 nM in assay [4].
